Assay results published in publication PMC6541444 (Science translational medicine, 2019).

Molecular target: T1, recombinant mouse IL-2Ra (Sino Biological) (mouse, UniProt P01590 22-236)
T1 sequence (looked up): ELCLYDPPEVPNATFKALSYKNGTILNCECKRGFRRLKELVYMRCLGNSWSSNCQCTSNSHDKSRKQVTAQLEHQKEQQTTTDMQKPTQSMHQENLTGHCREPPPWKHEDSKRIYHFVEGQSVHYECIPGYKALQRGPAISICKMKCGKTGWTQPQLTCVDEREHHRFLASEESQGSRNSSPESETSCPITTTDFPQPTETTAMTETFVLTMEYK
Assay: ELISA

B1: mouse IL-2 (recombinant, unmodified) (ligand, UniProt P04351 21-169, looked up)
chain: APTSSSTSSSTAEAQQQQQQQQQQQQHLEQLLMDLQELLSRMENYRNLKLPRMLTFKFYLPKQATELKDLQCLEDELGPLRHVLDLTQSKSFQLEDAENFISNIRVTVVKLKGSDNTFECQFDDESATVVDFLRRWIAFCQSIISTSPQ
Q: Does B1 bind?
A: binds
